Values belong to the binder of their own block, whether it stands above or below them.
What was measured:
[1] = target: T1, hCCR4 partial peptide (Compound 1) (human, conjugated with thyroglobulin (THY) using SMCC as the crosslinking agent); assay: ELISA on plate-coated hCCR4 partial peptide conjugate
T1 construct: Synthetic peptide, coated on ELISA plates as a THY conjugate
T1 peptide: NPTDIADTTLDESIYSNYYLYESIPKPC

[2] = target: T2, mCCR4 partial peptide (Compound 2) (mouse, conjugated with thyroglobulin (THY) using SMCC as the crosslinking agent); assay: ELISA, THY-peptide conjugate coated at 10 µg/ml, antibody concentration varied
T2 construct: Synthetic peptide, coated on ELISA plates as a THY conjugate
T2 peptide: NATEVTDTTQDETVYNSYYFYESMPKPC
Procedure: (§1) The conjugate prepared in the above manner was dispensed at 10 μg/ml and 50 μl/well into a 96 well plate for EIA (manufactured by Greiner) and adhered thereto by incubating it at 4° C. overnight. After washing with PBS, 1% BSA-containing PBS (hereinafter referred to as “1% BSA-PBS”) was added at 100 μl/well, and the mixture was allowed to react at room temperature for 1 hour to block the remaining active groups. After removing 1% BSA-PBS, diluted solutions of a transformant culture supernatant, a purified mouse antibody or a purified human chimeric antibody was dispensed at 50 μl/well, and the mixture was allowed to react at room temperature for 1 hour. […] After the reaction, each well was washed with Tween-PBS, ABTS solution (a solution prepared by dissolving 0.55 g of 2,2′-azino-bis(3-ethylbenzothiazoline-6-sulfonic acid)ammonium in 1 liter of 0.1 M citrate buffer (pH 4.2), and adding 1 μl/ml of hydrogen peroxide just before use) was dispensed at 50 μl/well for color developing, and the absorbance at 415 nm (hereinafter referred to as “OD₄₁₅”) was measured.
(§2) Reactivity of the purified anti-CCR4 chimeric antibody KM2760 to human CCR4 and mouse CCR4 was measured by ELISA shown in 2(3) of Example 2. […]

[3] = target: T1, hCCR4 partial peptide (Compound 1); assay: as above
Procedure: as §1, §2

[4] = target: T3, human CC chemokine receptor 4 (human CCR4) (human, UniProt P51679 1-360); assay: flow cytometry (immunofluorescent method) on hCCR4-high-expressing EL-4 cells
T3 construct: Expressed on mouse EL-4 cells transfected with hCCR4 DNA (CCR4/EL-4); also called hCCR4; K5-5
T3 sequence: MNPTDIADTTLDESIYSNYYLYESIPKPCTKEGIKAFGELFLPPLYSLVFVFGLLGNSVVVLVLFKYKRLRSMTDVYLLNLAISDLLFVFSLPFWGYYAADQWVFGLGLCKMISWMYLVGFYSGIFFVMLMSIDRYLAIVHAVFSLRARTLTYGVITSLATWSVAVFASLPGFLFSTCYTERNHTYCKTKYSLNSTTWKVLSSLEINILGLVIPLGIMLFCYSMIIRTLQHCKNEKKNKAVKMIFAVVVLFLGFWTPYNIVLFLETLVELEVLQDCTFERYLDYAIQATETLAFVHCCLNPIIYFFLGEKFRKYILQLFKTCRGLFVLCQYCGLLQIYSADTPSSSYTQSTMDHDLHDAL
Procedure: They were selected by an immunofluorescent method using KM2160 prepared in Example 1(5). Into a 96 well U shape plate, 2×10⁵ cells of each of selected several tens of the gene-introduced clones was dispensed. KM2160 labeled with biotin by a known method (Enzyme Antibody Method, published by Gakusai Kikaku) was diluted to 5 μg/ml with a buffer for FACS (1% BSA-PBS, 0.02% EDTA, 0.05% NaN₃, pH 7.4), human IgG (manufactured by Welfide) was diluted to 3.75 mg/ml to prevent nonspecific staining, each of the thus diluted antibody solution was dispensed at 200 μl/well, and the mixture was allowed to react in ice for 30 minutes. As a negative control, biotinylated anti-IL-5R antibody (WO 97/10354) was used at the same concentration. After washing twice with 200 μl/well of the buffer, streptoavidin-PE (manufactured by Becton Dickinson Japan) was dispensed at 20 μl/well. Thirty minutes after the reaction in ice in the dark, the cells were washed three times with 200 μl/well and finally suspended to 500 μl, and the fluorescence intensity was measured by a flow cytometer to select one cell line having the highest fluorescence intensity.
Reactivity of the purified anti-CCR4 chimeric antibody KM2760 with the hCCR4-high-expressing cell (hereinafter referred to as “CCR4/EL-4”) produced in 3(4) of Example 2 was measured in the same manner as in 3(4) of Example 2.

binding result [1]: binds
B1: mouse anti-CCR4 monoclonal antibody KM2160 (antibody, mouse IgG1, V domains shown)
VH: EVQLVESGGDLMKPGGSLKISCAASGFIFSNYGMSWVRQTPDMRLEWVATISSASTYSYYPDSVKGRFTISRDNAENSLYLQMNSLRSEDTGIYYCGRHSDGNFAFGYWGRGTLVTVSA
VL: DVLMTQTPLSLPVSLGDQASISCRSSRNIVHINGDTYLEWYLQRPGQSPKLLIYKVSNRFSGVPDRFSGSGSGTDFTLKISRVEAEDLGVYYCFQGSLLPWTFGGGTRLEIRR
notes: Mouse IgG1 class with a kappa L chain, produced by hybridoma KM2160; also called anti-CCR4 mouse antibody KM2160

binding result [2]: binds
binding result [3]: binds
binding result [4]: binds
B2: anti-CCR4 chimeric antibody KM2760 (antibody, V domains shown)
VH: B1 VH
VL: B1 VL
notes: Human chimeric antibody: CH is human IgG1 subclass and CL is human kappa class (vector pKANTEX93); It was expressed in rat YB2/0 cells; It was used biotinylated in the flow cytometry assays

— patent US20020098527A1 (Kyowa Kirin, published 2002)
